Patent publication US20220332804A1 (CSL INNOVATION, published 2022)
Numbering of substitutions follows the chain as printed.

Experiments:
Assay in all cases: SPR, KD relative to WT C2;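 note: biacore SPR at 37 °C, anti-C2 mAbs captured on anti-human IgG chips with alanine or serine point mutants of C2 as analyte, KD from 1:1 fit compared with wild-type C2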
human C2 K274A = biological target: T1, human C2 K274A (human, UniProt P06681 21-752)
T1 sequence: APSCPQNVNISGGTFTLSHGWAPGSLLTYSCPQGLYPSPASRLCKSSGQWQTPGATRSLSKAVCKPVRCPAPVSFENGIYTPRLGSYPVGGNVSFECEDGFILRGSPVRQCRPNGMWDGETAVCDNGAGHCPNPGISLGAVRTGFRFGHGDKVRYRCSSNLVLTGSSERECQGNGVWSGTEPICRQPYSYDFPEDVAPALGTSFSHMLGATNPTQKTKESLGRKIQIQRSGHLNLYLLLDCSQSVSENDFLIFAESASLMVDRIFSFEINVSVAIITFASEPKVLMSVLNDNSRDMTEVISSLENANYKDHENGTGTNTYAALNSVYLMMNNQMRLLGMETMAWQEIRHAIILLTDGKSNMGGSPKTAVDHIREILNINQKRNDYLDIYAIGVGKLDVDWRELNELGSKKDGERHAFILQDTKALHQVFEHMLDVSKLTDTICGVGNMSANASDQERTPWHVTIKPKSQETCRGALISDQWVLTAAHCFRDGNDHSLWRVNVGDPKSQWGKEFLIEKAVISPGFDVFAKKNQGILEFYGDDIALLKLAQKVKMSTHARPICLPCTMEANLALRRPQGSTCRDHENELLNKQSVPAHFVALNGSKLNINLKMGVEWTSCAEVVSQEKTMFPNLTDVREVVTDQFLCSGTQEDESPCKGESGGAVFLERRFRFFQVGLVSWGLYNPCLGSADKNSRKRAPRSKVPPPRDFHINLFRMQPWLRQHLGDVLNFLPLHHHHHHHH

human C2 A326S = biological target: T2, human C2 A326S (human, UniProt P06681 21-752)
T2 sequence: T1 sequence with A254K, A306S

human C2 K457A = biological target: T3, human C2 K457A (human, UniProt P06681 21-752)
T3 sequence: T1 sequence with A254K, K437A

human C2 G466A = biological target: T4, human C2 G466A (human, UniProt P06681 21-752)
T4 sequence: T1 sequence with A254K, G446A

B1: RF16-242 (antibody, human IgG4 S228P, lambda, V domains shown)
VH: EVQLLQSGAEVKKPGESLKISCKGSGYSFTSYWIGWVRQMPGKGLEWMGIIYPGDSDTRYSPSFQGQVTISADKSISTAYLQWSSLKASDTAMYYCARRGHYGDYFDYWGQGTLVTVSS
VL: SYELTQPPSVSVSPGQTARITCSGDALPKKYAYWYHQKSGQAPVLVIYEDRRRPSEIPERFSGSSSGTMATLTITGAQVEDEGVYFCYSRDRAGNQRVFGGGTQLTVLG
notes: pH-dependent anti-C2 antibody from a phage display library
Question: What does the source list for B1?
Answer: Fold diff (human C2 K274A): 12 fold; Fold diff (human C2 A326S): 1 fold; Fold diff (human C2 K457A): 33 fold; Fold diff (human C2 G466A): 4 fold
